assay: soluble on expression in E. coli; label from the status in PepcDB or PDB records

Soluble on expression in E. coli, not soluble:
MGSDKIHHHHHHMIHSETFAEIATLKERNLIALKEAREAGRHAVGTYCLFSPTELILAAGAIPVSLCGTSQKPIPAAEKVLPRNLCPLIKSSYGFAVTDTCPYFHFADFLLAETTCDGKKKMYELLGELKPIHVMQLPQIQDEAALDYWLMEIGRLKTRLEREFGVRITDKALTEAIRLMNEERRSLQALQDVCKAIPSPISGLDLLTVLHNRGFSVDRRAAIELVDRFAAELRQMAAAGISPFTESTPRILLTGVPVGVGSEKLIRIIEESGASVVCLESCGAYKKVEQVREGGDPLRAIAERYLKVPCSCMSPNTGRLELVERLTREFRVDGVVDLTWLGCHTYAVESSVLKKHLQQRTGLPFLQIETDYSESDTGQLKVRVEAFLEIVHRSMKRTA, MGSDKIHHHHHHMIIIIDEASAKLASFYYHDEIFKPQWKCAADMSSASDELHDEFQEKLQEKLPDELREKLYVVLPADESINDFQKTTIQESADNTAKANTGNLRIPKAPTDCIWIVSDRQQKQIADSLGIASVGEPQCGTRYAVESLAELDIEYLERVRRRYNHIPWDIGETDRCLIRELSLADLPALYELYDKPGMTDFVEPLYDYETELEYQKAYIENMYDFYEYGMWLVFSKETGKLIGRAGLEHNEMGYMIAPEFQNLGYATEVCRFIVDYARKNTDFEELYCRIDEKNVASVRLAKRLGFVRNGQIGNERNTGGLDRYVLSI, MGSDKIHHHHHHMIITLQDTETREISAKIDELHEERGEAALGRVLTLLISTNEAELEHDLEVANNASREHPCRVIAVAPSSRKISPEEEHPTFLDAEIRFGSDAGAGEIIVLRPRGGLVRHADTLVIPLLVPDAPVVAWWPNEAPANLSKDLLGSMASSRITDAMHSSNPRRTMDDLRRNRSAKDVDMSWTRLTVWRAMIASMLDQPPHLPVSNVRVTGQKDYLPLDLLAAWLRLRLNVPVMIEEDPNATAVTGVYLTRGDGVLSLERPSTDDGFAVISVPGQSPQTISVPARTLEECLSEELGRLYPDEIYSEVVSQGLDLVKPRQ, MGSDKIHHHHHHMIKLILSAPVPAMAVAFEHSFQNTENVEIIPGPFETIPEFDCMVSAANSFGLMDGGVDAAITAYFGPQLQERVQQHILREYLGEQPVGTAFVIETGNSKYPWLVHAPTMRVPLIIDGTDAVYNATRAALLAIFQHNKSAGEDRKIKSVVFPAMGAGCGQVSPGSVARQMKLAWDGFINCTTEINWQYASARQNAVFSTTAYCPSKALCPNARTEYIGFGDYRTYCKKSGNTCISPRHQVDDIYIGAHSHAVFLSPNSHGKHLKPEYLSGVKNDV, MGSDKIHHHHHHMILDERVNSNFDQLNDNDIQIAHYVNTHIDVCKNMKIQDLASQTHASNATIHRFTRKLGFDGYSDFKSFLKFEDSKNHQLPSDSMEQFKQEIENTFNYLERIDYRLLTHKMHHATTIYLYGTGRAQMNVAEEAQRILLTMHKNIILLHDVHELKMVLNKTIPEDLFFIISLSGETHQLKEVTQLLQLRQKYFISVTTMKDNTLAQQADYNVYVSSNTFYLNDGTDYSSFISYHIFFETLLRKYNEYKENHELT, MGSDKIHHHHHHMIMINKTKRLMVSRQVKIPRKTYFWGPTPNPGMHPKDQSVTLLSIIRDYLKLSDKEREAARILANGLVKVDGKTVREKKFAVGFMDVIEINGESYRVVYNDQGALVLMKETKERASMKLLKVRSKVIAPGNRIQLGTHDGRTFITDDKSKKVGDVWAVSVPDMKISEIIKMQPGNKAYITAGSHVNQTGTISKIEAKEGSSANLVHFQEGFSTIKDHVFMIGSSKFSFVLSPEEVIP, MGSDKIHHHHHHMIMLTVSDYLAQPVVSPDVSIRYGDHPDQFGDLYLPAQVHPAPVVMMIHGGCWQAAYPLTPLGECCAALRARGYAVWNLEYRRLGNGGGWPSTFLDVAAGADHLRVLAEHYPLDLNRVVVVGHSAGGHLALWLATRPKLPPTSPLYIPHPLPVHGVVALAAVADLRRGVTATACGTACLELIDNEESRCAEASPHARLPLDIPHYHLVGGDDPIVPASYVAAFVDAARQAGDLAHLTIVPKCGHFELTTPHSQAWQTVVQTIDKACSLNRS, MGSDKIHHHHHHMINTKNLNVFYNENKVLKDIQLEVIPGRITGIIGPNGAGKSTLIKAILNIVPHSGEILINGEVSKKQLKKIAYVEQKSDIDHTFPIKVKECVSLGTYTGLKLFQKLGAKEWSRVSEALQKVNLLDYENRQIGELSGGQFQRVLLARCLVQEADYIFLDEPFVGIDSISEKIIMDILQDLKHQGKTILIVHHDLSKVKEYFDDIIILNRELIAYGPINENFSQKNLKKAYGDNIFIGD, MGSDKIHHHHHHMIPEDVLAFFDLKQGRRPKAILNVLVGKMTVSALFWGLEYDILEYLNFWKTIDTTSFLENVDRAVEGGFLAKKDELIYLTEAGQQKQFSCTTPTPFIKKVRLDEAIDLLLLANQVISEFSFKNNRYIPVSDNLRINVILKNWFKQLKSRNHHTTDIVQKYTQGLDELLSQLQQHDADILLSYLPNHVDPGWTIDQLAQAFGISKFQMELKIRLIFSKIISDAVLTKIAPFVDLLNSTIKENVMPDSTYQTWQLIRQGKTVDEVARLKHVKTNTVKEHILMAAILDSNFPFDKFVRFNFEIGKHPTEVDFRSIQSQIADITFFDFRLIQIRKIKEQQNNNGNR, MGSDKIHHHHHHMIPLSRPDINEQDIERVVEVLKSGRLSLGEYTKRFGEMVAEYTGARFGWAVSSGTAALHLILESLDIDEGDLILVPSFTFIASVNVILMKRAIPVFVDVDERTLNVSPETLEEAVKRCLKGFKQGNIEIKGKPRLFMAVDVFGHPLDWDGILDVCQRYGIAVVEDSCEALGSEYKGRKVGTFGVAGAFAFYPNKQITTGEGGVVVTNDEKIHTAVKSMSNQGRGEGDEWLYHVRFGYNYRIDEMSAALGCSQMERIDEIVEKRAEAAERYSKMLKEFSWVKVPVVEDYVTKMSWFVYVVRLEGPDRNRVMRYMEEKGVQVRNYFYPVHFQPFYEKLFGSMKGLLPVTERESEKTLAIPFFTSITESEQKTVVEILREAVERVG, MGSDKIHHHHHHMIQGKKFISPGTWFSMIYPSDWSEFEDGEGSFLFYNPEHWTGNFRISAYKEDAAAPGGMNYGKDSVRQELKENPSASLVKVGHLECAYSKEMFEEEGIYYTSHLWVTGIDNVAFECSFTVPKGEHVDEAEKIISSLEIRKDGQKYPAEIIPIRLSEIYQVNEAYEWVTDTVKTQLKKDFQGLEEDLQKIQDVIDSGVLSPKKKEPWLAFGIAICTILANEVEGMEWMTLVDGNREVPVLRYEGSEQLIDPMKLLWSRVRAGETCEVAEAYKQALIH, MGSDKIHHHHHHMIREVKFESQDRRIKQIIAALNENGIKDIEEANAICEAAGLDPYKTCEETQPICFENAKWAYVVGSAIALKKGCKNAAEAAEAIGIGLQAFCIPGSVADDRKVGIGHGNLAAMLLREETKCFAFLAGHESFAAAEGAIKIAAKADKVRKEPLRCILNGLGKDAAQIISRINGFTYVQTEFDYFTGELKVVREIAYSDGPRAKVKCYGADDVREGVAIMWKEGVDVSITGNSTNPTRFQHPVAGTYKKERVLAGKPYFSVASGGGTGRTLHPDNMAAGPASYGMTDTMGRMHSDAQFAGSSSVPAHVEMMGFLGIGNNPMVGCTVACAVDVATALSK, MGSDKIHHHHHHMIRIGIDVGGTNTDAVVMDGTQVVAGVKSATTADVMSGVVNALKDVLAASRMAASAVDVVMIGTTHFTNAVVQRRDLAPTAAVRLGLPATASLPPMVDWPEDLKTAIGNHAWLAHGGNEFDGRVISPLNEEELLGIAAEIKVRGINSIAITSVLSPVSNEFEKRAAEIFAKALPGAHITLSSDIGRIGLLERENAAIMNACLRDLSAHVIEAFRKAIAETGIRGRFFLTQNDGTLMDAAFAEKFPVLTFASGPTNSMRGAAFLSGVDDAIVVDIGGTTSDVGSLQNGFPRQATVAVEVGGVRTNFRMPDVFSIGLGGGSLVVDGEHGVKVGPTSVGYRINTEALIFGGETLTTTDITVAAGNAELGDKARVAQLPKDLLDRTQAKILSMLEDCVERSRLSPDPLPVIVVGGGSILVNGPIGGLEVIKPNYFGVANAVGAAIAQVSGEIDRVYALAEIGRDQALDDAKARAIDAAVAAGASRDSVEIVDVEDVPLAYLPGNATRVRVKAVGELHVA

From the DeepSol protein solubility set
